US20230399409A1 (SHANGHAI HUAOTA BIOPHARMACEUTICAL, published 2023)
Where a chain is given by its changes, count along the chain named. Names may count otherwise. Blank lines part the entries; values can stand above or below the binder they belong to.

How the values were obtained:
[1] = molecular target: T1, His-tagged human IL-1 Rrp2/IL-1 R6 protein (human, UniProt Q9HB29 20-335); assay: SPR (Biacore 8K), His-tagged antigen captured by anti-His on CM5, antibody as analyte, 1:1 model
T1 construct: Bought reagent; also called Human IL-1 Rrp2/IL-1 R6 Protein, His Tag; ACRO Biosystems IL2-H52H6; not shown: His tag
T1 sequence (looked up): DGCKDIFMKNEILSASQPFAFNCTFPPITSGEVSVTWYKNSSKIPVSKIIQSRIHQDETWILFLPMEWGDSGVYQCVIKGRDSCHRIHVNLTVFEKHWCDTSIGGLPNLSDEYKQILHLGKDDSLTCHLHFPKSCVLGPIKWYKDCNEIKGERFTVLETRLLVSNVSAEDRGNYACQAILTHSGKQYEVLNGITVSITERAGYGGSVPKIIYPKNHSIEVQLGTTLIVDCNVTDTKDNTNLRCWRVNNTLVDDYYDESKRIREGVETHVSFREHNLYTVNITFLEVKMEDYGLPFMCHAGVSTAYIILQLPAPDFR
Description: Series S Sensor Chip CM5 was equilibrated for 20-30 min at room temperature, and then fitted in the instrument. Following the instruction manual for His Capture Kit, an anti-His antibody was immobilized onto the Series S Sensor Chip CM5. An HBS-EP+(10×) solution was diluted 10-fold in ultrapure water as the running buffer. An antigen (His-tagged human IL-1 Rrp2/IL-1 R6 protein) was diluted to 1 μg/ml and 10 μL/min using the running buffer, and loaded during 15 sec to capture around 50 RU of antigen. An antibody sample were diluted to 30 nM, 15 nM, 7.5 nM, 3.75 nM, 1.875 nM, 0.9375 nM, and 0.46875 nM using an equilibration buffer; the running buffer was taken as zero concentration; at 30 μL/min, binding and dissociation were allowed to occur for 120 s and 900 s, respectively; and the chip was regenerated with the glycine solution at pH 1.5. The sample was analyzed by a capture-based single-cycle kinetics program; the corresponding analysis program was selected to analyze the data, and it was confirmed that there was no obvious reference binding; and the Kinetics 1:1 binding model was selected for fitting analysis to acquire the kinetic parameters of the sample.

monkey IL-36R = molecular target: T2, monkey IL-36R (monkey); assay: flow cytometry on CHO-K1 cells expressing monkey IL-36R
T2 construct: whole, on cells

human IL-36R [2] = molecular target: T3, human IL-36R (human, UniProt Q9HB29 20-575); assay: cell-based or functional assay
T3 sequence (looked up): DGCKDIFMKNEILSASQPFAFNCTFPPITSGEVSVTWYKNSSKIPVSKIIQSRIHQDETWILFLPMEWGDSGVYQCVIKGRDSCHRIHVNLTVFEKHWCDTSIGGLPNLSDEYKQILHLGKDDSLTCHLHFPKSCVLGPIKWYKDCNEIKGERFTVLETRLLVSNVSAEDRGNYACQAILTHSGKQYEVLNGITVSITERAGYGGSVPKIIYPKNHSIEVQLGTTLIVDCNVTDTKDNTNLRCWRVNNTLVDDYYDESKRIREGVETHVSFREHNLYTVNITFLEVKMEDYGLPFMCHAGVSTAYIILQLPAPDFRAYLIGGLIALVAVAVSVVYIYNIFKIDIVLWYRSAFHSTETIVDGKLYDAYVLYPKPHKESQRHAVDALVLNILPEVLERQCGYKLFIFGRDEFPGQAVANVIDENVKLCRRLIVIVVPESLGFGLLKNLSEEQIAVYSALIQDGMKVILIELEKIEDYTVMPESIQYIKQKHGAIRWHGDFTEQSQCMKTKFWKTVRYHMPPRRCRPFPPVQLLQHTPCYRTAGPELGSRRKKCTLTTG

human IL-36R [3] = molecular target: T3, human IL-36R; assay: cell-based or functional assay; remark: listed apart in the source
human IL-36R [4] = molecular target: T3, human IL-36R; assay: cell-based or functional assay; remark: listed apart in the source
human IL-36R [5] = molecular target: T3, human IL-36R; assay: flow cytometry on CHO-K1 cells expressing human IL-36R
human IL-36R [6] = molecular target: T3, human IL-36R; assay: cell-based or functional assay; remark: listed apart in the source
human IL-36R [7] = molecular target: T3, human IL-36R; assay: cell-based or functional assay; remark: listed apart in the source

B1: humanized anti-IL-36R antibody 900527 (antibody, V domains shown)
VH: QVQLVQSGAEVKKPGASVKVSCKASGYTFTSSWMHWAKQAPGQGLEWIGEIHPNSAKTNYNQKFQGRVTMTRDTSISTAYMELSRLRSDDTAVYYCARVDYGKPWFAYWGQGTLVTVSS
VL: QIVLTQSPGTLSLSPGERATLSCRASSSVSSSYLHWYQQKPGQAPRLWIYSTSSRATGIPDRFSGSGSGTDFTLTISRLEPEDFATYYCQQFQSSPLTFGQGTKLEIK
notes: IgG1 (human IgG1 L234A/L235A, human kappa); also called HB0034
Kd [1]: 0.0452 nM | koff [1]: 4.37e-05 s⁻¹ | kon [1]: 967000 M⁻¹ s⁻¹ | EC50 (monkey IL-36R): 0.0595 µg/mL | pNFκB detected in HIF under IL-36β stimulation IC50 (human IL-36R [2]): 0.105 µg/mL | HuIL-6 detected in HIF under IL-36α stimulation IC50 (human IL-36R [3]): 0.0479 µg/mL | IC50, GM-CSF release under IL-36 α stimulation (NCI/ADR-RES cells) (human IL-36R [4]): 0.022 µg/mL | IC50, GM-CSF release under IL-36 β stimulation (NCI/ADR-RES cells) (human IL-36R [4]): 0.0174 µg/mL | IC50, GM-CSF release under IL-36 γ stimulation (NCI/ADR-RES cells) (human IL-36R [4]): 0.0198 µg/mL | IC50, IL-6 release under IL-36 α stimulation (NCI/ADR-RES cells) (human IL-36R [4]): 0.015 µg/mL | IC50, IL-6 release under IL-36 β stimulation (NCI/ADR-RES cells) (human IL-36R [4]): 0.0139 µg/mL | IC50, IL-6 release under IL-36 γ stimulation (NCI/ADR-RES cells) (human IL-36R [4]): 0.0162 µg/mL | IC50, IL-8 release under IL-36 α stimulation (NCI/ADR-RES cells) (human IL-36R [4]): 0.0315 µg/mL | IC50, IL-8 release under IL-36 β stimulation (NCI/ADR-RES cells) (human IL-36R [4]): 0.0223 µg/mL | IC50, IL-8 release under IL-36 γ stimulation (NCI/ADR-RES cells) (human IL-36R [4]): 0.0198 µg/mL | IC50, pNF-κB under IL-36 β stimulation (NCI/ADR-RES cells) (human IL-36R [4]): 71.4 ng/ml | EC50 (human IL-36R [5]): 0.062 µg/mL | HuIL-6 detected in HIF under IL-36β stimulation IC50 (human IL-36R [6]): 0.0546 µg/mL | HuIL-6 detected in NCI/ADR-RES under IL-36β stimulation IC50 (human IL-36R [7]): 0.00887 µg/mL

B3: humanized anti-IL-36R antibody 900513 (antibody, V domains shown)
VH: B1 VH
VL: B1 VL with Q1E, R24S, S54N
notes: IgG1; built from the chimeric expression plasmids (human IgG1 L234A/L235A, human kappa)
Kd [1]: 0.0148 nM | koff [1]: 1.34e-05 s⁻¹ | kon [1]: 904000 M⁻¹ s⁻¹ | IC50, GM-CSF release under IL-36 α stimulation (NCI/ADR-RES cells) (human IL-36R [4]): 0.0206 µg/mL | IC50, GM-CSF release under IL-36 β stimulation (NCI/ADR-RES cells) (human IL-36R [4]): 0.0184 µg/mL | IC50, GM-CSF release under IL-36 γ stimulation (NCI/ADR-RES cells) (human IL-36R [4]): 0.0179 µg/mL | IC50, IL-6 release under IL-36 α stimulation (NCI/ADR-RES cells) (human IL-36R [4]): 0.0124 µg/mL | IC50, IL-6 release under IL-36 β stimulation (NCI/ADR-RES cells) (human IL-36R [4]): 0.0223 µg/mL | IC50, IL-6 release under IL-36 γ stimulation (NCI/ADR-RES cells) (human IL-36R [4]): 0.0121 µg/mL | IC50, IL-8 release under IL-36 α stimulation (NCI/ADR-RES cells) (human IL-36R [4]): 0.0398 µg/mL | IC50, IL-8 release under IL-36 β stimulation (NCI/ADR-RES cells) (human IL-36R [4]): 0.0221 µg/mL | IC50, IL-8 release under IL-36 γ stimulation (NCI/ADR-RES cells) (human IL-36R [4]): 0.018 µg/mL | IC50, pNF-κB under IL-36 β stimulation (NCI/ADR-RES cells) (human IL-36R [4]): 105 ng/ml

Continued by falling Kd [1], values first:

Kd [1]: 0.0579 nM | koff [1]: 5.1e-05 s⁻¹ | kon [1]: 881000 M⁻¹ s⁻¹ | IC50, GM-CSF release under IL-36 α stimulation (NCI/ADR-RES cells) (human IL-36R [4]): 0.0202 µg/mL | IC50, GM-CSF release under IL-36 β stimulation (NCI/ADR-RES cells) (human IL-36R [4]): 0.0186 µg/mL | IC50, GM-CSF release under IL-36 γ stimulation (NCI/ADR-RES cells) (human IL-36R [4]): 0.021 µg/mL | IC50, IL-6 release under IL-36 α stimulation (NCI/ADR-RES cells) (human IL-36R [4]): 0.0216 µg/mL | IC50, IL-6 release under IL-36 β stimulation (NCI/ADR-RES cells) (human IL-36R [4]): 0.0168 µg/mL | IC50, IL-6 release under IL-36 γ stimulation (NCI/ADR-RES cells) (human IL-36R [4]): 0.0176 µg/mL | IC50, IL-8 release under IL-36 α stimulation (NCI/ADR-RES cells) (human IL-36R [4]): 0.0304 µg/mL | IC50, IL-8 release under IL-36 β stimulation (NCI/ADR-RES cells) (human IL-36R [4]): 0.022 µg/mL | IC50, IL-8 release under IL-36 γ stimulation (NCI/ADR-RES cells) (human IL-36R [4]): 0.018 µg/mL | IC50, pNF-κB under IL-36 β stimulation (NCI/ADR-RES cells) (human IL-36R [4]): 64.9 ng/ml
B2: humanized anti-IL-36R antibody 900534 (antibody, V domains shown)
VH: B1 VH
VL: B1 VL with W48L
notes: IgG1 (human IgG1 L234A/L235A, human kappa)

Kd [1]: 0.0254 nM | koff [1]: 1.68e-05 s⁻¹ | kon [1]: 660000 M⁻¹ s⁻¹ | pNFκB detected in HIF under IL-36β stimulation IC50 (human IL-36R [2]): 0.1 µg/mL | HuIL-6 detected in HIF under IL-36α stimulation IC50 (human IL-36R [3]): 0.146 µg/mL | IC50, GM-CSF release under IL-36 α stimulation (NCI/ADR-RES cells) (human IL-36R [4]): 0.0328 µg/mL | IC50, GM-CSF release under IL-36 β stimulation (NCI/ADR-RES cells) (human IL-36R [4]): 0.0224 µg/mL | IC50, GM-CSF release under IL-36 γ stimulation (NCI/ADR-RES cells) (human IL-36R [4]): 0.0288 µg/mL | IC50, IL-6 release under IL-36 α stimulation (NCI/ADR-RES cells) (human IL-36R [4]): 0.0332 µg/mL | IC50, IL-6 release under IL-36 β stimulation (NCI/ADR-RES cells) (human IL-36R [4]): 0.0204 µg/mL | IC50, IL-6 release under IL-36 γ stimulation (NCI/ADR-RES cells) (human IL-36R [4]): 0.0198 µg/mL | IC50, IL-8 release under IL-36 α stimulation (NCI/ADR-RES cells) (human IL-36R [4]): 0.0439 µg/mL | IC50, IL-8 release under IL-36 β stimulation (NCI/ADR-RES cells) (human IL-36R [4]): 0.0292 µg/mL | IC50, IL-8 release under IL-36 γ stimulation (NCI/ADR-RES cells) (human IL-36R [4]): 0.0284 µg/mL | IC50, pNF-κB under IL-36 β stimulation (NCI/ADR-RES cells) (human IL-36R [4]): 115 ng/ml | HuIL-6 detected in HIF under IL-36β stimulation IC50 (human IL-36R [6]): 0.0837 µg/mL
B4: anti-IL-36R chimeric antibody 900497 (antibody, V domains shown)
VH: QVQLQQTGSVLVRPGTSVKLSCKASGYTFTSSWMHWAKQRPGQGLEWIGEIHPNSAKTNYNEKFKGKATLTVDTFSSTAYVDLSSLASEDSAVYYCARVDYGKPWFAYWGQGTLVTVSA
VL: QIVLTQSPTIMSASPGERVTMTCSASSSVSSSYLHWYQQKPGSSPKLWIYSTSNLASGVPARFSGSGSGTSYSLTINSMEAEDAATYYCQQFQSSPLTFGAGTKLGLK
notes: Human-mouse chimera: human IgG1 heavy-chain constant region with L234A and L235A (Eu numbering), human kappa constant region
